# B1: Novosphingobium aromaticivorans BaeA, wild type, heterodimer of Saro_2872 (SEQ ID NO:40) and Saro_2873 (SEQ ID NO:42) (Novosphingobium aromaticivorans DSM … (protein)
# chain 1: MSALLYHGEPNGASLTVLAALAETGLDIECRRIDLLAGERHSLPGIVDPVALDLSIEGEGPVLVIDGEAMTESVFLAQYLDEAAGGVGLQPTDAYARWEMMMWCRQITERLSPAAALLGNLATSQSAIAAIPAEDFAILAARIVSDDLRERWQALNDDAVNAAQVADSETKVAAAVDRCEKQLGDGREWLMGTFSIADLVTYSWLAGMEPLRPAAFADAPLVKAWLARTAARPCVQAALARATISEPLRAWAPGPEINRWG
# chain 2: MDEVSLYHWEPNANSGKPMLALMEKGVPFSSHYIDMLQFDQHKPEYLAINPQGTIPAMTHNGQVLTESTAIMEYVNDRFDGPDLMPADAQDRWRVRWWMKFMDQWLGPSFSMIGWSVFVGPMVRQRDPAELAAAIDRIPLPERRTAWRKAINGDFSESEMAESRRRVGLGIAKLEEELGKRPYVGSNQYSLADINIFNSTYSLPISQPDLAGKDRTPNIMRWLKRVYTREAVKKTWAMGKTDLAHRYGLIMAEIEG
# notes: His8 tag removed by TEV, SAIAG left on the N-terminus
# B2: Saro_2872: polypeptide from Novosphingobium aromaticivorans, SEQ ID NO:40; subunit of BaeA (protein)
# chain: MSALLYHGEPNGASLTVLAALAETGLDIECRRIDLLAGERHSLPGIVDPVALDLSIEGEGPVLVIDGEAMTESVFLAQYLDEAAGGVGLQPTDAYARWEMMMWCRQITERLSPAAALLGNLATSQSAIAAIPAEDFAILAARIVSDDLRERWQALNDDAVNAAQVADSETKVAAAVDRCEKQLGDGREWLMGTFSIADLVTYSWLAGMEPLRPAAFADAPLVKAWLARTAARPCVQAALARATISEPLRAWAPGPEINRWG
# modifications: Novosphingobium aromaticivorans
# notes: subunit of BaeA
# B3: BaeA (3:N14A): BaeA variant with Asn14 of Saro_2873 mutated into Ala (protein)
# chain: MDEVSLYHWEPNAASGKPMLALMEKGVPFSSHYIDMLQFDQHKPEYLAINPQGTIPAMTHNGQVLTESTAIMEYVNDRFDGPDLMPADAQDRWRVRWWMKFMDQWLGPSFSMIGWSVFVGPMVRQRDPAELAAAIDRIPLPERRTAWRKAINGDFSESEMAESRRRVGLGIAKLEEELGKRPYVGSNQYSLADINIFNSTYSLPISQPDLAGKDRTPNIMRWLKRVYTREAVKKTWAMGKTDLAHRYGLIMAEIEG
# B4: Novosphingobium aromaticivorans BaeA (Saro_2872/Saro_2873 heterodimer, SEQ ID NO:40/SEQ ID NO:42) variant 2:S14A (Ser14 of Saro_2872 to Ala) (Novosphingobium … (protein)
# chain 1: MSALLYHGEPNGAALTVLAALAETGLDIECRRIDLLAGERHSLPGIVDPVALDLSIEGEGPVLVIDGEAMTESVFLAQYLDEAAGGVGLQPTDAYARWEMMMWCRQITERLSPAAALLGNLATSQSAIAAIPAEDFAILAARIVSDDLRERWQALNDDAVNAAQVADSETKVAAAVDRCEKQLGDGREWLMGTFSIADLVTYSWLAGMEPLRPAAFADAPLVKAWLARTAARPCVQAALARATISEPLRAWAPGPEINRWG
# chain 2: MDEVSLYHWEPNANSGKPMLALMEKGVPFSSHYIDMLQFDQHKPEYLAINPQGTIPAMTHNGQVLTESTAIMEYVNDRFDGPDLMPADAQDRWRVRWWMKFMDQWLGPSFSMIGWSVFVGPMVRQRDPAELAAAIDRIPLPERRTAWRKAINGDFSESEMAESRRRVGLGIAKLEEELGKRPYVGSNQYSLADINIFNSTYSLPISQPDLAGKDRTPNIMRWLKRVYTREAVKKTWAMGKTDLAHRYGLIMAEIEG
# notes: His8 tag on Saro_2872 removed by TEV, SAIAG left on N-terminus
# B5: Novosphingobium aromaticivorans BaeA (Saro_2872/Saro_2873 heterodimer, SEQ ID NO:40/SEQ ID NO:42) variant 3:S15A (Ser15 of Saro_2873 to Ala) (Novosphingobium … (protein)
# chain 1: MSALLYHGEPNGASLTVLAALAETGLDIECRRIDLLAGERHSLPGIVDPVALDLSIEGEGPVLVIDGEAMTESVFLAQYLDEAAGGVGLQPTDAYARWEMMMWCRQITERLSPAAALLGNLATSQSAIAAIPAEDFAILAARIVSDDLRERWQALNDDAVNAAQVADSETKVAAAVDRCEKQLGDGREWLMGTFSIADLVTYSWLAGMEPLRPAAFADAPLVKAWLARTAARPCVQAALARATISEPLRAWAPGPEINRWG
# chain 2: MDEVSLYHWEPNANAGKPMLALMEKGVPFSSHYIDMLQFDQHKPEYLAINPQGTIPAMTHNGQVLTESTAIMEYVNDRFDGPDLMPADAQDRWRVRWWMKFMDQWLGPSFSMIGWSVFVGPMVRQRDPAELAAAIDRIPLPERRTAWRKAINGDFSESEMAESRRRVGLGIAKLEEELGKRPYVGSNQYSLADINIFNSTYSLPISQPDLAGKDRTPNIMRWLKRVYTREAVKKTWAMGKTDLAHRYGLIMAEIEG
# notes: His8 tag on Saro_2873 removed by TEV
# B6: Novosphingobium aromaticivorans LigE (Saro_2405), wild type (Novosphingobium aromaticivorans DSM 12444) (protein)
# chain: MAANNTITFYDLALSTGATISPFVWATKYALKHKGFDLDVVPGGFTGILERTGGKTERLPAIVDDGEFVLDSWGIVEYLDAKYPDRPVLIPHESVAATLKALDNWFWNAAVGPWMFCFCQDYRDLSLPQDHEYVTHSREKMLGRKLEEVQAGREERLPKISAALEPLRAALAQHQWLGGSSPNYADYRIMGGILFTASVCKTPVLANDDPLRDWIERCLDLYGGLGRHPGLFPLFGLEQREGDPDLFNRAAGQGGIYKRNTGPESTRAETQRITEGMKK
# notes: E. coli expressed
# What was measured:
# [1] = substrate: COc1cc(C(=O)[C@@H](CO)Oc2ccccc2OC)ccc1O; experiment: Kinetics of the enzymatic cleavage of β(R)-MPHPV by BaeA; assay type: biochemical, Novosphingobium aromaticivorans; details: other: β(R)-MPHPV into GS-HPV, 18 nM dimeric enzyme, 5 mM GSH, pH 8.0, 25° C.
# Description: (§1) Expression and purification of recombinant enzymes. Recombinant proteins were expressed using the plasmids described above in E. coli B834 containing plasmid pRARE2 (Novagen) grown for ˜25 hours at 25° C. in ZYM-5052 Autoinduction Medium containing kanamycin and chloramphenicol. Recombinant proteins were purified using a Ni^2+-NTA column as described in Example 1 above, except using gravity-flow columns instead of an FPLC system. After removal of His8-tags using Tev protease, recombinant proteins retained a Ser-Ala-Ile-Ala-Gly-peptide on their N-termini, derived from the linker between the protein and the Tev protease recognition site. Recombinant LigF1 was purified as previously described (Gall and Ralph et al. 2014).
# Kinetics of the enzymatic cleavage of β(R)-MPHPV. Various concentrations of racemic MPHPV (equal amounts of the β(S)- and β(R)-stereoisomers) were combined with 5 mM GSH in RB. At time zero, 100 μL of a given enzyme in RB+5 mM GSH was combined with 1000 μL of the racemic MPHPV/GSH sample at 25° C. (both samples were equilibrated to 25° C. before mixing). Final concentrations of β(R)-MPHPV in each reaction were 0.0045, 0.010, 0.017, 0.068, or 0.13 mM. Final enzyme concentrations were 18 nM BaeA, 23 nM BaeA (2:S14A), 22 nM BaeA (3:S15A), 24 nM BaeA (2:S14A/3:S15A), 98 nM BaeA (3N14A), or 70 nM LigE (Saro_2405) (all concentrations are for the dimeric enzyme, except for LigE, which is the concentration of the monomer). At specified time points, 200 μL of a reaction was removed and combined with 40 μL of 1 M HCl (Acros Organics) to stop the reaction before HPLC analysis to quantify GS-HPV formed. […]
# (§2) HPLC analysis. Analysis and quantification of aromatic compounds were performed using an Ultra AQ C18 5 μm column (Restek) attached to a System Gold HPLC (Beckman Coulter) with running buffers and methods described in Example 1. The eluent was analyzed for light absorbance between 191 and 600 nm, and absorbances at 280 nm were used for quantification of aromatic metabolites by comparing peak areas to those of standards.
# [2] = Kinetics of the enzymatic cleavage of β(R)-MPHPV into GS-HPV; assay type: biochemical
# Description: Kinetics of the enzymatic cleavage of β(R)-MPHPV. Various concentrations of racemic MPHPV (equal amounts of the β(S)- and β(R)-stereoisomers) were combined with 5 mM GSH in RB. At time zero, 100 μL of a given enzyme in RB+5 mM GSH was combined with 1000 μL of the racemic MPHPV/GSH sample at 25° C. (both samples were equilibrated to 25° C. before mixing). Final concentrations of β(R)-MPHPV in each reaction were 0.0045, 0.010, 0.017, 0.068, or 0.13 mM. Final enzyme concentrations were 18 nM BaeA, 23 nM BaeA (2:S14A), 22 nM BaeA (3:S15A), 24 nM BaeA (2:S14A/3:S15A), 98 nM BaeA (3N14A), or 70 nM LigE (Saro_2405) (all concentrations are for the dimeric enzyme, except for LigE, which is the concentration of the monomer). At specified time points, 200 μL of a reaction was removed and combined with 40 μL of 1 M HCl (Acros Organics) to stop the reaction before HPLC analysis to quantify GS-HPV formed. Control experiments were allowed to proceed for several hours to ensure that only the β(R)-MPHPV in the reaction mixtures was being reacted with in these experiments.
# as §2
# [3] = substrate: COc1cc(C(=O)[C@@H](CO)Oc2ccccc2OC)ccc1O; experiment: Kinetics of the enzymatic cleavage of β(R)-MPHPV by BaeA (2:S14A); assay type: biochemical, Novosphingobium aromaticivorans; details: other: β(R)-MPHPV into GS-HPV, 23 nM dimeric enzyme, 5 mM GSH, pH 8.0, 25° C.
# Description: (§3) To generate mutant 2:S14A, pVP302K/2873-H2872 was amplified by kinase phosphorylated primers “Saro2872-S14A_R” and “Saro2872-S14A_F”. To generate mutant 3:S15A, pVP302K/H2873-2872 was amplified by kinase phosphorylated primers “Saro2873-S15A_R” and “Saro2873-S15A_F”. To generate mutant 3:N14A, pVP302K/2873-H2872 was amplified by kinase phosphorylated primers “Saro2873-S15A_R” and “Saro2873-N14A_F”. These linear fragments were separately circularized using T4 DNA ligase to generate plasmids pVP302K/2873-H2872(S14A), pVP302K/H2873(S15A)-2872, and pVP302K/2873(N14A)-H2872, respectively.
# as §1
# (§4) Kinetics of the enzymatic cleavage of β(R)-MPHPV. Various concentrations of racemic MPHPV (equal amounts of the β(S)- and β(R)-stereoisomers) were combined with 5 mM GSH in RB. […] At specified time points, 200 μL of a reaction was removed and combined with 40 μL of 1 M HCl (Acros Organics) to stop the reaction before HPLC analysis to quantify GS-HPV formed. […]
# as §2
# [4] = substrate: COc1cc(C(=O)[C@@H](CO)Oc2ccccc2OC)ccc1O; experiment: Kinetics of the enzymatic cleavage of β(R)-MPHPV by BaeA (3:S15A); assay type: biochemical, Novosphingobium aromaticivorans; details: other: β(R)-MPHPV into GS-HPV, 22 nM dimeric enzyme, 5 mM GSH, pH 8.0, 25° C.
# Description: as §3, §1, §4, §2
# [5] = substrate: COc1cc(C(=O)[C@@H](CO)Oc2ccccc2OC)ccc1O; experiment: Kinetics of the enzymatic cleavage of β(R)-MPHPV by LigE; assay type: biochemical, Novosphingobium aromaticivorans; details: other: β(R)-MPHPV into GS-HPV, 70 nM enzyme (monomer), 5 mM GSH, pH 8.0, 25° C.
# Description: Enzyme purifications. Genes Saro_2595, E. coli yghU, E. coli yfcG, and SLG_04120 from Sphingobium sp. SYK-6 (codon-optimized for expression in E. coli) were individually cloned into plasmid pVP302K (Gall and Ralph et al. 2014) so that transcripts from the plasmids would be translated into proteins containing a His8-tag connected to the N-terminus via a tobacco etch virus (TEV) protease recognition site. Recombinant proteins were expressed in E. coli B834 (Wood 1966, Doherty et al. 1995) containing plasmid pRARE2 (Novagen, Madison, Wis.) grown for ˜24 h at 27° C. in ZYM-5052 Autoinduction Medium (Studier 2005) containing kanamycin and chloramphenicol. Recombinant proteins were purified essentially as described previously (Gall and Kim et al. 2014); see below for modifications to the procedure. After removal of His8-tags using TEV protease, recombinant proteins retained a Ser-Ala-Ile-Ala-Gly-peptide on their N-termini, derived from the linker between the protein and the TEV protease recognition site. Recombinant LigE and LigF1 from N. aromaticivorans were purified as previously described (Gall and Ralph et al. 2014).
# as §4, with “RB. At time zero, 100 μL of a given enzyme in RB+5 mM GSH was combined with 1000 μL of the racemic MPHPV/GSH sample at 25° C. (both samples were equilibrated to 25° C. before mixing).” for “RB.”
# as §2
molecule,measurement,setting,value
B1,Km,[1],20 ± 3 µM
same,kcat,[1],2.9 ± 0.3 s⁻¹
same,kcat/Km,[1],150000 ± 30000 M⁻¹ s⁻¹
B2,activity of the Saro_2872 subunit in BaeA relative to the Saro_2873 subunit,[2]; inferred from the 3:N14A variant,< 5%
B3,"KM, fold higher than wild-type BaeA",[2]; β(R)-MPHPV,~12.5 fold
same,"kcat, fold lower than (wild-type) BaeA",[2]; β(R)-MPHPV,~20 fold
B4,Km,[3],22 ± 3 µM
same,kcat,[3],2.8 ± 0.2 s⁻¹
same,kcat/Km,[3],130000 ± 20000 M⁻¹ s⁻¹
B5,Km,[4],100 ± 20 µM
same,kcat,[4],2.4 ± 0.3 s⁻¹
same,kcat/Km,[4],23000 ± 6000 M⁻¹ s⁻¹
B6,Km,[5],7 ± 1 µM
same,kcat,[5],0.68 ± 0.06 s⁻¹
same,kcat/Km,[5],100000 ± 20000 M⁻¹ s⁻¹

# From patent US11447754B2, “In vitro methods of chemical conversion using non-stereospecific glutathione lyases” (WISCONSIN ALUMNI RESEARCH FOUNDATION, priority 2017, dated 2022)
